According to patent US20230257449A1:

B1: FX-5-6-m3 (antibody, V domains shown)
VH: QVQLVESGGGVVQPGRSLRLSCAASGFTFSTYAMHWVRQAPGKGLEWVCVISYDANYKYYADSVKGRFTCSRDNSKNTLYLQMNSLRAEDTAVYYCARDSRLRSLLYFEWLSQGYFDYWGQGTLVTVSS
VL: EIVMTQSPATLSVSPGERATLSCRSSQSITFDYKNYLAWYQQKPGQAPRLLIYWGSTRATGIPARFSGSGSGTEFTLTISSLQSEDFAVYYCQQHYRTPPSFGQGTKVEIK
B2: FX-7-6-m3 (antibody, V domains shown)
VH: EVQLLESGGGLVQPGGSLRLSCAASGFTFSSYAMHWVRQAPGKGLEWVSVISYDANYKYYADSVKGRFTISRDNSKNTLYLQMNSLRAEDTAVYYCAKDSQLRSLLYFEWLSQGYFDYWGQGTTLTVSS
VL: EIVMTQSPATLSVSPGERATLSCRSSQSITFDYKNYLAWYQQKPGQAPRLLIYWGSTRATGIPARFSGSGSGTEFTLTISSLQSEDFAVYYCQQHYRTPPSFGQGTKVEIK
B3: FX-3-6-m3 (antibody, V domains shown)
VH: QVQLVESGGGVVQPGRSLRLSCAASGFTFSTYAMHWVRQAPGKGLEWVAVISYDANYKYYADSVKGRFTISRDNSKNTLYLQMNSLRAEDTAVYYCAKDSQLRSLLYFEWLSQGYFDYWGQGTLVTVSS
VL: EIVMTQSPATLSVSPGERATLSCRSSQSITFDYKNYLAWYQQKPGQAPRLLIYWGSTRATGIPARFSGSGSGTEFTLTISSLQSEDFAVYYCQQHYRTPPSFGQGTKVEIK
B4: FX-10-6-m3 (antibody, V domains shown)
VH: QVQLVQSGAEVKKPGSSVKVSCKASGFTFSTYAIHWVRQAPGQGLEWMGVISYDANYKYYAQKFQGRVTITRDNSKSTAYMELSSLRSEDTAVYYCARDSRLRSLLYFEWLSQGYFDYWGQGTTLTVSS
VL: EIVMTQSPATLSVSPGERATLSCRSSQSITFDYKNYLAWYQQKPGQAPRLLIYWGSTRATGIPARFSGSGSGTEFTLTISSLQSEDFAVYYCQQHYRTPPSFGQGTKVEIK
B5: FX-76-1-m3 (antibody, V domains shown)
VH: QVQLLETGGGLVKPGQSLKLSCAASGFTFTSFAMHWVRQPPGKGLEWVAVVSYDGNYKYYADSVQGRFTISRDNSKNTLYLQMNSLRAEDTAVYYCAKDSRRRSLLYFEWLSQGYFNPWGQGTTLTVSS
VL: DIQMTQSPSSLSASVGDRVTITCRSSQSITFDYKNYLAWYQQKPGKAPKLLIYWGSYLESGVPSRFSGSGSGTDFTLTISSLQPEDFATYYCQQHYRTPPSFGQGTKVEIK
B6: FX-5-2-m3 (antibody, V domains shown)
VH: QVQLVESGGGVVQPGRSLRLSCAASGFTFSTYAMHWVRQAPGKGLEWVCVISYDANYKYYADSVKGRFTCSRDNSKNTLYLQMNSLRAEDTAVYYCARDSRLRSLLYFEWLSQGYFDYWGQGTLVTVSS
VL: DIQMTQSPSSLSASVGDRVTITCRSSQSITFDYKNYLAWYQQKPGKAPKLLIYWGSSLQSGVPSRFSGSGSGTDFTLTISSLQPEDFATYYCQQHYRTPPSFGQGTKVEIK
B7: FX-6-2-m3 (antibody, V domains shown)
VH: QVQLVESGGGVVQPGRSLRLSCAASGFTFDTYAMHWVRQAPGKGLEWVAVISYDANYKYYADSVKGRFTISRDNSKNTLYLQMNSLRAEDTAVYYCARDSRLRSLLYFEWLSQGYFDYWGQGTLVTVSS
VL: DIQMTQSPSSLSASVGDRVTITCRSSQSITFDYKNYLAWYQQKPGKAPKLLIYWGSSLQSGVPSRFSGSGSGTDFTLTISSLQPEDFATYYCQQHYRTPPSFGQGTKVEIK
B8: FX-3-3-m3 (antibody, V domains shown)
VH: QVQLVESGGGVVQPGRSLRLSCAASGFTFSTYAMHWVRQAPGKGLEWVAVISYDANYKYYADSVKGRFTISRDNSKNTLYLQMNSLRAEDTAVYYCAKDSQLRSLLYFEWLSQGYFDYWGQGTLVTVSS
VL: DIQMTQSPSSLSASVGDRVTITCRSSQSITFDYKNYLAWYQQKPGKAPKLLIYAASSLQSGVPSRFSGSGSGTDFTLTISSLQPEDFATYYCQQHYRTPPSFGQGTKVEIK
B9: FX-4-2-m3 (antibody, V domains shown)
VH: QVQLVESGGGVVQPGRSLRLSCAASGFDFSTYAMHWVRQAPGKGLEWVAVISYDANYKYYADSVKGRFTISRDNSKNTLYLQMNSLRAEDTAVYYCARDSRLRSLLYFEWLSQGYFDYWGQGTLVTVSS
VL: DIQMTQSPSSLSASVGDRVTITCRSSQSITFDYKNYLAWYQQKPGKAPKLLIYWGSSLQSGVPSRFSGSGSGTDFTLTISSLQPEDFATYYCQQHYRTPPSFGQGTKVEIK
B10: FX-3-2-m3 (antibody, V domains shown)
VH: QVQLVESGGGVVQPGRSLRLSCAASGFTFSTYAMHWVRQAPGKGLEWVAVISYDANYKYYADSVKGRFTISRDNSKNTLYLQMNSLRAEDTAVYYCAKDSQLRSLLYFEWLSQGYFDYWGQGTLVTVSS
VL: DIQMTQSPSSLSASVGDRVTITCRSSQSITFDYKNYLAWYQQKPGKAPKLLIYWGSSLQSGVPSRFSGSGSGTDFTLTISSLQPEDFATYYCQQHYRTPPSFGQGTKVEIK
B11: FX-10-2-m3 (antibody, V domains shown)
VH: QVQLVQSGAEVKKPGSSVKVSCKASGFTFSTYAIHWVRQAPGQGLEWMGVISYDANYKYYAQKFQGRVTITRDNSKSTAYMELSSLRSEDTAVYYCARDSRLRSLLYFEWLSQGYFDYWGQGTTLTVSS
VL: DIQMTQSPSSLSASVGDRVTITCRSSQSITFDYKNYLAWYQQKPGKAPKLLIYWGSSLQSGVPSRFSGSGSGTDFTLTISSLQPEDFATYYCQQHYRTPPSFGQGTKVEIK
B12: FX-12-2-m3 (antibody, V domains shown)
VH: QVQLVQSGAEVKKPGASVKVSCKASGFTFSTYAINWVRQATGQGLEWMGVISYDANYKYYAQKFQGRVTMTRDTSISTAYMELSSLRSEDTAVYYCARDSQLRSLLYFEWLSQGYFDYWGQGTTLTVSS
VL: DIQMTQSPSSLSASVGDRVTITCRSSQSITFDYKNYLAWYQQKPGKAPKLLIYWGSSLQSGVPSRFSGSGSGTDFTLTISSLQPEDFATYYCQQHYRTPPSFGQGTKVEIK

Assays:
polyclonal human IgG = test: BLI (Octet) polyreactivity
[1] = molecular target: H1 HA (strain not stated) (influenza A virus H1); test: HA binding EC50; column head not printed: H1 HA and pM inferred

| Binder | poly reactivity octet max binding response (nm) (polyclonal human IgG) | EC50 [1] [pM] |
| --- | --- | --- |
| B1 | 1.13 |  |
| B2 | 0.703 |  |
| B3 | 0.774 |  |
| B4 | 0.862 |  |
| B5 |  | 3.8 |
| B6 | 0.992 |  |
| B7 | 0.798 |  |
| B8 | 0.485 |  |
| B9 | 0.758 |  |
| B10 | 0.521 |  |
| B11 | 0.681 |  |
| B12 | 0.391 |  |
